Test results: patent US20090221027A1 (BASF AG, priority 2005, published 2009)
Where two headings read alike, the source gives them in different places. One block for each molecule: values may come before it.

What was measured:
[1] = molecular target: C. glutamicum MetY enzyme (Corynebacterium glutamicum, UniProt Q79VI4); test: biochemical
[2] = Inhibition of the enzyme by methionine (Table 1); type: biochemical
[3] = reported specific activity; Bsu MetI from T7 promoter in E. coli; cited from earlier work
[4] = Cystathionine γ-synthase activity in crude cell extracts; type: biochemical
[5] = reported specific activity; Bsu MetI from T7 promoter in E. coli; cited from earlier work; remark: listed apart in the source
[6] = O-acetyl-homoserine sulfhydrylase activity in crude cell extracts; type: biochemical
[7] = H.-S. Lee, personal communication; cited from earlier work
[8] = in C. glutamicum from P15, crude extracts
[9] = in E. coli from P15, crude extracts

Molecule: CSCC[C@H](N)C(=O)O [methionine, L-methionine]
IC50 [1]: ~5 mM

Inhibition by methionine [2, 8]: No | Inhibition by methionine [2, 9]: No
B1: Bsu MetI: Bacillus subtilis O-acetyl-homoserine sulfhydrylase with cystathionine-gamma-synthase activity, SEQ ID NO:2 (protein)
chain: MSQHVETKLAQIGNRSDEVTGTVSAPIYLSTAYRHRGIGESTGFDYVRTKNPTRQLVEDAIANLENGARGLAFSSGMAAIQTIMALFKSGDELIVSSDLYGGTYRLFENEWKKYGLTFHYDDFSDEDCLRSKITPNTKAVFVETPTNPLMQEADIEHIARITKEHGLLLIVDNTFYTPVLQRPLELGADIVIHSATKYLGGHNDLLAGLVVVKDERLGEEMFQHQNAIGAVLPPFDSWLLMRGMKTLSLRMRQHQANAQELAAFLEEQEEISDVLYPGKGGMLSFRLQKEEWVNPFLKALKTICFAESLGGVESFITYPATQTHMDIPEEIRIANGVCNRLLRFSVGIEHAEDLKEDLKQALCQVKEGAVSFE
O-Ac-Hse sulfhydrylase activity [3]: 7.0 µmol/min/mg | Cystathionine γ-synthase activity [4, 8]: 30.2 nmol/min | Cystathionine γ-synthase activity [4, 9]: 1900 nmol/min | Cystathionine γ-synthase activity [5]: 1.5 µmol/min/mg | O-Ac-Hse sulfhydrylase activity [6, 8]: 6.3 nmol/min | O-Ac-Hse sulfhydrylase activity [6, 9]: 199 nmol/min

B2: Cg1 MetY: C. glutamicum O-acetylhomoserine sulfhydrylase (protein, UniProt Q79VI4 1-437, looked up)
O-acetyl-L-homoserine …: MPKYDNSNADQWGFETRSIHAGQSVDAQTSARNLPIYQSTAFVFDSAEHAKQRFALEDLGPVYSRLTNPTVEALENRIASLEGGVHAVAFSSGQAATTNAILNLAGAGDHIVTSPRLYGGTETLFLITLNRLGIDVSFVENPDDPESWQAAVQPNTKAFFGETFANPQADVLDIPAVAEVAHRNSVPLIIDNTIATAALVRPLELGADVVVASLTKFYTGNGSGLGGVLIDGGKFDWTVEKDGKPVFPYFVTPDAAYHGLKYADLGAPAFGLKVRVGLLRDTGSTLSAFNAWAAVQGIDTLSLRLERHNENAIKVAEFLNNHEKVEKVNFAGLKDSPWYATKEKLGLKYTGSVLTFEIKGGKDEAWAFIDALKLHSNLANIGDVRSLVVHPATTTHSQSDEAGLARAGVTQSTVRLSVGIETIDDIIADLEGGFAAI
O-Ac-Hse sulfhydrylase activity [3]: 6.0 µmol/min/mg | Inhibition by methionine [7]: Yes
